Results as given in US20170204158A1 (Regeneron, published 2017).

What was measured:
[1] = biological target: T1, human IL-33 (R&D Systems, # 3625-IL-010/CF) (human, UniProt O95760 112-270, biotinylated in the blocking ELISA of Example 3 (sites not given)); experiment: cell-based or functional assay
T1 sequence (looked up): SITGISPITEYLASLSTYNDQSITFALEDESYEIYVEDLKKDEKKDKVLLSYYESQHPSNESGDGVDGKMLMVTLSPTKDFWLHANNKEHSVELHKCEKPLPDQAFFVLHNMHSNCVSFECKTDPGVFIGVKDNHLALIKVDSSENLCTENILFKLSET

[2] = biological target: T1, human IL-33 (R&D Systems, # …); experiment: competition ELISA; antagonist pre-mixed with 20 pM biotin-hIL-33, binding to plate-coated human ST2-Fc
Method: The ability of exemplary IL-33 antagonists of the invention to block human IL-33 (hIL-33) binding to the human ST2 receptor was measured using a competition sandwich ELISA. A portion of human ST2 protein ecto domain that was expressed with a C-terminal mouse Fc tag (SEQ ID NO:2) was coated at a concentration of 1 μg/mL in PBS buffer on a 96-well microtiter plate overnight at 4° C. […] Biotinylated hIL-33 protein (R&D systems, #3625-IL/CF) (biot-hIL-33) was added to achieve a constant final concentration of 20 pM to serial dilutions of IL-33 antagonists ranging from 0 to 100 nM. The mixture was incubated for 1 hour at room temperature (RT) before transfer to the hST2-hFc coated microtiter plates. After incubation for 1 hour at RT, the wells were then washed, and plate-bound biot-hIL-33 was detected with HRP-conjugated streptavidin (Thermo Scientific, # N200). All samples were developed with a TMB solution (BD biosciences, # 51-2607KC) to produce a colorimetric reaction and then quenched by acidification with 1M sulfuric acid before measuring absorbance at 450 nm on a Victor X5 plate reader (PerkinElmer). Data analysis was performed using a sigmoidal dose-response model within Prism™ software. […] Maximum blocking values represent the ability of the antagonists to block IL-33 binding relative to baseline. The absorbance measured at the constant amount of hIL-33 on the dose curve was defined as 0% blocking and the absorbance with no added IL-33 was defined as 100% blocking. The absorbance values of the wells containing the highest concentration tested for each antagonist were used to determine the maximum blocking percent.

[3] = biological target: T2, monkey IL-33 expressed with C-terminal hexahistidine tag (MfIL-33-6His) (cynomolgus monkey (M. fascicularis)); experiment: SPR (Biacore T-200), 37 C; Fc fusion captured by anti-Fc antibody, MfIL-33-6His injected
T2 construct: also called M. fascicularis IL-33-6His; cynomolgus monkey IL-33
T2 chain: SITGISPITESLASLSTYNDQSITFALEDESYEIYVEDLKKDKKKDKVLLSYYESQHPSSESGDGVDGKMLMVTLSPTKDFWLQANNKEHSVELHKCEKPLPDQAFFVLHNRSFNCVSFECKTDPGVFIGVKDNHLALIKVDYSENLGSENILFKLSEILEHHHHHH
Method: (§1) The Biacore sensor surface was first derivatized by amine coupling a polyclonal rabbit anti-mouse antibody (GE, # BR-1008-38) or with a monoclonal mouse anti-human Fc antibody (GE, # BR-1008-39) to capture IL-33 Trap and receptor proteins with a C-terminal mouse IgG2a Fc tag or a C-terminal human IgG1 Fc tag, respectively. Kinetic experiments were carried out in 0.01 M HEPES pH 7.4, 0.15 M NaCl, 3 mM EDTA, and 0.005% v/v Surfactant Tween-20 (HBST running buffer). Different concentrations of human IL-33, mouse IL-33 or MfIL-33-6His prepared in HBST running buffer (ranging from 60 nM to 27.4 pM, 3-fold dilutions, for Trap proteins and ranging from 60 nM to 0.25 nM, 3-fold dilutions, for ST2 receptor proteins) were injected over the captured IL-33 Trap and receptor protein surfaces at a flow rate of 50 μL/minute. Association of different IL-33 proteins to the different capture surfaces was monitored for 7 minutes for Trap proteins or 4 minutes for ST2 receptor proteins and their dissociation in HBST running buffer was monitored for 14 minutes for Trap proteins or 8 minutes for ST2 receptor proteins. Kinetic association (ka) and dissociation (kd) rate constants were determined by fitting the real-time binding sensorgrams to a 1:1 binding model using Scrubber 2.0c curve-fitting software. Binding dissociation equilibrium constants (KD) and dissociative half-lives (t½) were calculated from the kinetic rate constants as: […]

[4] = biological target: T1, human IL-33 (R&D Systems, # …); experiment: SPR (Biacore T-200), 37 C; Fc fusion captured by anti-Fc antibody, IL-33 injected
Method: as §1

[5] = biological target: T1, human IL-33 (R&D Systems, # …); experiment: SPR (Biacore T-200), 25 C; Fc fusion captured by anti-Fc antibody, IL-33 injected
Method: as §1

B1: hST2-hIL1RAcP-mFc (Fc fusion)
chain: KFSKQSWGLENEALIVRCPRQGKPSYTVDWYYSQTNKSIPTQERNRVFASGQLLKFLPAAVADSGIYTCIVRSPTFNRTGYANVTIYKKQSDCNVPDYLMYSTVSGSEKNSKIYCPTIDLYNWTAPLEWFKNCQALQGSRYRAHKSFLVIDNVMTEDAGDYTCKFIHNENGANYSVTATRSFTVKDEQGFSLFPVIGAPAQNEIKEVEIGKNANLTCSACFGKGTQFLAAVLWQLNGTKITDFGEPRIQQEEGQNQSFSNGLACLDMVLRIADVKEEDLLLQYDCLALNLHGLRRHTVRLSRKNPIDHHSSERCDDWGLDTMRQIQVFEDEPARIKCPLFEHFLKFNYSTAHSAGLTLIWYWTRQDRDLEEPINFRLPENRISKEKDVLWFRPTLLNDTGNYTCMLRNTTYCSKVAFPLEVVQKDSCFNSPMKLPVHKLYIEYGIQRITCPNVDGYFPSSVKPTITWYMGCYKIQNFNNVIPEGMNLSFLIALISNNGNYTCVVTYPENGRTFHLTRTLTVKVVGSPKNAVPPVIHSPNDHVVYEKEPGEELLIPCTVYFSFLMDSRNEVWWTIDGKKPDDITIDVTINESISHSRTEDETRTQILSIKKVTSEDLKRSYVCHARSAKGEVAKAAKVKQKVPAPRYTVESGEPRGPTIKPCPPCKCPAPNLLGGPSVFIFPPKIKDVLMISLSPIVTCVVVDVSEDDPDVQISWFVNNVEVHTAQTQTHREDYNSTLRVVSALPIQHQDWMSGKEFKCKVNNKDLPAPIERTISKPKGSVRAPQVYVLPPPEEEMTKKQVTLTCMVTDFMPEDIYVEWTNNGKTELNYKNTEPVLDSDGSYFMYSKLRVEKKNWVERNSYSCSVVHEGLHNHHTTKSFSRTPGK
notes: also called third IL-33 antagonist; human IL-33 Trap
IC50 (M), blocking of IL-33 induced activation of human basophils (CD203c), donor 655675 [1]: 1.9e-11 M
IC50 (M), blocking of IL-33 induced activation of human basophils (CD203c), donor 655676 [1]: 1.51e-11 M
IC50 (M), blocking of IL-33 induced activation of human basophils (CD203c), donor 655685 [1]: 2.3e-11 M
IC50 (M), blocking of IL-33 induced activation of human basophils (CD203c), donor 655686 [1]: 2.09e-11 M
IC50 (M), blocking of IL-33 induced activation of human basophils (CD203c), donor 698846 [1]: 3.6e-11 M
IC50 (M), blocking of IL-33 induced activation of human basophils (CD203c), donor 698847 [1]: 1.11e-11 M
IC50 [2]: 0.00634 nM
60 nM Monkey IL-33 Bound (RU) [3]: 27 RU
Kd [3]: 0.00329 nM
koff [3]: 4.79e-05 s⁻¹
kon [3]: 1.45e+07 M⁻¹ s⁻¹
t1/2 [3]: 4.02 h
60 nM Human IL-33 Bound (RU) [4]: 28 RU
Kd [4]: 0.00111 nM
koff [4]: 2.02e-05 s⁻¹
kon [4]: 1.82e+07 M⁻¹ s⁻¹
t1/2 [4]: 9.55 h
60 nM Human IL-33 Bound (RU) [5]: 28 RU
Kd [5]: 0.00329 nM
koff [5]: 6.32e-05 s⁻¹
kon [5]: 1.92e+07 M⁻¹ s⁻¹
t1/2 [5]: 3.05 h
